# Assay results taken from patent US20260274955A1 (JANUX THERAPEUTICS, published 2026).
# Molecular target: T1, Anti-CD28 Fab (SEQ ID NOs: 202, 203)
# T1 construct: biotinylated and captured on neutravidin coated plates in the phage ELISA
# Assay: phage binding ELISA, Fab on plate;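 note: clonal phage supernatant ELISA, wells preincubated with CD28 antigen or blocking buffer only, then bound phage detected using HRP-linked anti-M13 antibody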
# T1 sequence (VH, as listed by the source, chain 1 of 2): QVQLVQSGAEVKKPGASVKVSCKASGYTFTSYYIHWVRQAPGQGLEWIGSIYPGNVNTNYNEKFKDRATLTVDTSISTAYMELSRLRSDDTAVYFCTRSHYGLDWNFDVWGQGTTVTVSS
# T1 sequence (VL, as listed by the source, chain 2 of 2): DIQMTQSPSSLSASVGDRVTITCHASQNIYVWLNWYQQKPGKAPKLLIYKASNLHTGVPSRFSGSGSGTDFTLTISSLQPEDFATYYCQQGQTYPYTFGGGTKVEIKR
# Method: After panning, phage infected bacteria were plated out and colonies picked into 96 well blocks. Clonal phage was then amplified and separated from bacterial cells via centrifugation.
# Clonal phage were harvested as crude supernatants and screened via standard ELISAs. […] Prior to the addition of clonal phage, wells were incubated with blocking buffer and CD28 antigen or blocking buffer alone. Without washing or aspirating, clonal phage supernatants were then added to the wells and incubated for a short time. Wells were then washed followed by detection of bound phage using a horse radish conjugated anti-M13 antibody. Clonal phage of interest were then sent for sequence analysis.
row,Binder,"Anti-CD28 Fab (SEQ ID NOs: 202, 203) signal"
1,TCAAGATYEWPYCF [Phage-980],1.96
2,WCAAVFSYTWSPCL [Phage-981],1.96
3,TCAAGAAYTWPACF [Phage-982],1.96
4,TCAAGATYEWPTCL [Phage-983],1.96

# Molecular target: Anti-CD28 Fab (SEQ ID NOs: 202, 203)
# Assay: phage binding ELISA on captured Fab;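 note: clonal phage supernatants added briefly to wells pre-incubated with CD28 antigen or with blocking buffer only, then washed, bound phage read by ELISA using HRP-coupled anti-M13 antibody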
# Target sequence in this assay (VH, as listed by the source, chain 1 of 2): as the sequence (VH, as listed by the source, chain 1 of 2) above
# Target sequence in this assay (VL, as listed by the source, chain 2 of 2): as the sequence (VL, as listed by the source, chain 2 of 2) above
# Method: Clonal phage were harvested as crude supernatants and screened via standard ELISAs. […] Prior to the addition of clonal phage, wells were incubated with blocking buffer and CD28 antigen or blocking buffer alone. Without washing or aspirating, clonal phage supernatants were then added to the wells and incubated for a short time. Wells were then washed followed by detection of bound phage using a horse radish conjugated anti-M13 antibody.
row,Binder,Anti-CD28 Fab signal
1,YCDGHSQEYMMKCL [Phage-111],2.28
2,YCSGHLPQYMQKCL [Phage-112],2.28
3,YCDGHSSEYMAKCL [Phage-113],2.28
4,YCAGHLPEYMEKCL [Phage-128],2.24
5,YCEGHAWEYMAKCL [Phage-129],2.24
6,YCQGHLPEYMNKCL [Phage-130],2.24
7,YCDGHSQEYMAKCL [Phage-131],2.24
8,YCDGHLPLYLAKCL [Phage-133],2.23
9,YCDGHLPQYMNKCL [Phage-134],2.23
10,YCDGHSAEYMAKCL [Phage-137],2.23
11,YCEGHSPEYMYKCL [Phage-138],2.23
12,YCQGHLPMYMEKCL [Phage-80],2.34
13,YCQGHLPMYMAKCL [Phage-77],2.34
14,YCQGHLPIYMEKCL [Phage-132],2.24
15,YCEGHLPMYMDKCL [Phage-140],2.22
16,YCEGHSWANLGKCL [Phage-85],2.32
17,YCDGHLPEYREKCF [Phage-86],2.32
18,YCDGHAPQYMRKCL [Phage-101],2.3
19,YCDGHAKEYMWKCL [Phage-102],2.3
20,YCEGHSSEYMLKCL [Phage-103],2.3
21,YCEGHSAQYMSKCL [Phage-105],2.29
22,YCDGHSREYIAKCL [Phage-106],2.29
23,YCEGHLPEYMQKCM [Phage-136],2.23
24,YCDGHSMEYMSKCL [Phage-139],2.22
